# Measured values from paper PMC10060833.
# Target: recombinant HAdV55 fiber protein (human adenovirus type 55 (HAdV55))
# Test: SDS-PAGE without heating or reducing agent; purified recombinant fiber in loading buffer with 10% SDS, without beta-ME, kept at room temperature for 5 min ("Non-reducing")
substance,measurement,value
recombinant HAdV55 fiber protein (natural protein),stoichiometry N,3
